Molecular target: T1, MBP-tagged EIN3 purified from E. coli (Arabidopsis, UniProt O24606 1-628)
T1 construct: also called ETHYLENE … 3; source: E. coli, purified
T1 sequence (looked up): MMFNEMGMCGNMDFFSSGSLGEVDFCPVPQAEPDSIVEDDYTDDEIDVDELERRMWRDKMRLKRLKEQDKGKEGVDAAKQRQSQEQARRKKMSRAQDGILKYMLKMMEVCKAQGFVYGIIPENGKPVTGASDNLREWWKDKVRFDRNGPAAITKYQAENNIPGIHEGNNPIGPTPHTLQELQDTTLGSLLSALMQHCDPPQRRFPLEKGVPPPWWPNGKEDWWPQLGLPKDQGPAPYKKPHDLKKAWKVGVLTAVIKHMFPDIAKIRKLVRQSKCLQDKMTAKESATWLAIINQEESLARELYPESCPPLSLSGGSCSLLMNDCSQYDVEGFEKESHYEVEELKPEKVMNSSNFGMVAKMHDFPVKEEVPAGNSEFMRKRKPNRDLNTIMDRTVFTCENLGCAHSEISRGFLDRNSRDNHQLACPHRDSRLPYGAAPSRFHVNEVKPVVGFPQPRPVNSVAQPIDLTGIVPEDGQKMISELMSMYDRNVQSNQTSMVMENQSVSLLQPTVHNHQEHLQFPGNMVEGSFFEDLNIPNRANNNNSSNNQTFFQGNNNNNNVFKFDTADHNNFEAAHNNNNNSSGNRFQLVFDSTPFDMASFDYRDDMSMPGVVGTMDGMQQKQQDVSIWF
Assay: pull-down; in vitro GST pull-down; GST-tagged ENAP1 and MBP-tagged EIN3 purified from E. coli
Details: both partners purified

B1: GST-ENAP1, full length, purified from E. coli (natural protein, Arabidopsis, UniProt Q8VZI9 1-249, looked up)
chain: METTPETQSKTHRLPAGREDWWSEDATATLIEAWGDRYVNLNRGNLRQNDWKEVADAVNSSHGNGRPKTDVQCKNRIDTLKKKYKTEKAKPLSNWCFFDRLDFLIGPVMKKSSGAVVKSALMNPNLNPTGSKSTGSSLDDDDDDDDDDEEDDDDAGDWGFVVRKHRKVEDVDSSEGSAFRELARSILKLGEAFERIEGKKQQMMIELEKQRMEVAKELELQRMNMLMEMQLELEKSKLGKRRAASGKKL
notes: ENAP1, encoded by at3g11100, Arabidopsis, full length; The methods of the pull-down name the fusion protein 'GST-CD3'; also called GST-labelled ENAP1; GST-tagged ENAP1; source: E. coli, purified (glutathione Sepharose 4B)
B1: binds.

Source: paper PMC5063967, “EIN2-dependent regulation of acetylation of histone H3K14 and non-canonical histone H3K23 in ethylene signalling” (Nature Communications, 2016)
